B1: aslo0543 (antibody, human IgG1, lambda, V domains shown)
VH: not shown
VL: QAVLTQPASLSASPGASASLTCTLRSSGDFSRYRIYWYQQKPGSPPQYLLRYKSDADKHQGSGVPSRFSGSKDASANAGILLISGLQSEDEADYYCMVWSSGAWYFGGGTKLTVLG
notes: also called aslo0543 IgG
B2: aslo0452 ngl-3 (antibody, human IgG1, lambda, V domains shown)
VH: EVQLLESGGGLVQPGGSLRLSCAASGFTFSSYAMSWVRQAPGKGLEWVSSISHLGGSTYYADSVKGRFTISRDNSKNTLYLQMNSLRAEDTAVYYCAGGANHGKYYYGMDKWGQGTTVTVSS
VL: QAVLTQPASLSASPGASASLTCTLRSGAPLPKYRIYWYQQKPGSPPQYLLRYKSDADKHQGSGVPSRFSGSKDASANAGILLISGLQSEDEADYYCMVWDHGVWYFGGGTKLTVLG
notes: also called aslo0452 ngl-3 IgG; aslo0452-ngl3-hIgG1TM

Experiments:
61-140 = molecular target: T1, 61-140 (human, UniProt P37840); experiment: ELISA on coated α-syn truncates (1 µg/ml coat, 1 µg/ml antibody), anti-human IgG-HRP detection
T1 construct: residues 61-140, NAC plus C-terminal region; coated on ELISA wells; also called α-syn truncate 61-140; aa61-140
Description: (§1) Briefly, one microgram per milliliter of each truncate was coated to a microtitre well overnight at 4° C. […] Following 1 h incubation and washing the bound antibody was detected by addition of an anti-human IgG conjugated to either HRP or Eu³⁺. Subsequent to incubation and washing, the appropriate detection substrate was added (TMB or DELFIA Enhancer solution respectively) and the plate read on a microtitre plate reader.

96-140 = molecular target: T2, 96-140 (human, UniProt P37840); experiment: as above
T2 construct: residues 96-140, C-terminal region only; coated on ELISA wells; also called α-syn truncate 96-140; C-terminal region only
Description: as §1

ΔNAC = molecular target: T3, ΔNAC (human, UniProt P37840); experiment: as above
T3 construct: NAC region deleted; coated on ELISA wells; also called ANAC; α-syn with NAC region deleted
Description: as §1

[1] = molecular target: human alpha-synuclein (recombinant) (human, UniProt P37840 1-140); experiment: as above
Description: as §1

[2] = molecular target: T4, human beta-synuclein (recombinant) (human, UniProt Q16143 1-134); experiment: HTRF epitope competition: unlabelled synuclein titrated against biotinylated human α-syn for binding to aslo0543
T4 construct: also called β-syn; β-synuclein
Description: (§2) IC₅₀ values were determined by curve fitting the data to a four parameter logistic equation using PRISM 6® software (Graphpad). […] For the negative control, the antibody test sample was replaced with an isotype control antibody or buffer only.

[3] = molecular target: T5, human gamma-synuclein (recombinant) (human, UniProt O76070 1-127); experiment: as above
T5 construct: also called γ-syn; γ-synuclein
Description: as §2

[4] = molecular target: native, endogenously expressed intracellular human α-syn in SH-SY5Y neuroblastoma cells (human, UniProt P37840 1-140); experiment: flow cytometry on fixed, permeabilised SH-SY5Y cells, anti-human IgG-FITC
Description: After extensive washes, bound antibody was detected by incubation with an anti-human or anti-mouse IgG-FITC secondary antibody. Following further washes the cells were analyzed with a FACS Canto II apparatus (Becton Dickinson, Franklin Lakes, N.J.) and data analysis was performed using FlowJo Software (Tree Star, Ashland, Oreg.).

[5] = molecular target: disease relevant pathological forms of human α-syn in Parkinson's disease brain tissue (human, UniProt P37840 1-140); experiment: immunohistochemistry of Parkinson's disease brain tissue
rat α-syn = rat α-syn (rat, UniProt P37377 1-140); experiment: direct binding HTRF assay
1-95 = molecular target: T6, 1-95 (human, UniProt P37840); experiment: ELISA on coated α-syn truncates, anti-human IgG-HRP detection
T6 construct: residues 1-95, N-terminal and NAC regions; coated on ELISA wells; also called α-syn truncate 1-95; aa1-95
Description: as §1

1-60 = molecular target: T7, 1-60 (human, UniProt P37840); experiment: as above
T7 construct: residues 1-60, N-terminal region only; coated on ELISA wells; also called α-syn truncate 1-60; aa1-60
Description: as §1

NCAP = molecular target: T8, NCAP (human, UniProt P37840-2); experiment: as above
T8 construct: alternatively spliced form missing amino acids 103-129; coated on ELISA wells; also called alternatively spliced form of α-syn missing amino acids 103-129
Description: as §1

aggregated human α-syn = aggregated human α-syn (human, UniProt P37840 1-140); experiment: DELFIA pair-wise capture ELISA: mouse IgG1 version of the antibody as capture, human IgG1 TM version of the same antibody as detection, anti-human IgG-Eu
Description: Subsequent to incubation and washing, the appropriate detection substrate was added (TMB or DELFIA Enhancer solution respectively) and the plate read on a microtitre plate reader.

[6] = molecular target: T4, human beta-synuclein (recombinant); experiment: HTRF epitope competition: unlabelled synuclein titrated against biotinylated human α-syn for binding to aslo0452 ngl-3
Description: as §2

[7] = molecular target: T5, human gamma-synuclein (recombinant); experiment: as above
Description: as §2

Row | Binder | binding result (61-140) | binding result (96-140) | binding result (ΔNAC) | binding result [1] | binding result [2] | binding result [3] | binding result [4] | binding result [5] | binding result (rat α-syn) | binding result (1-95) | binding result (1-60) | binding result (NCAP) | binding result (aggregated human α-syn) | binding result [6] | binding result [7]
1 | B1 | binds | binds | binds | binds | no binding | no binding | binds | binds | binds | no binding (tested: 1 µg/ml (single concentration)) | no binding (tested: 1 µg/ml (single concentration)) | no binding (tested: 1 µg/ml (single concentration)) | binds |  | 
2 | B2 |  | binds | binds |  |  |  |  |  |  |  | no binding (tested: 1 µg/ml (single concentration)) |  |  | no binding | no binding

From patent US20210179698A1 (AstraZeneca / MedImmune, published 2021)
